Laboratory results as given in patent publication US20220089656A1 (published 2022).

Biological target: T1, human ASIP (agouti-signaling protein, RnD Systems) (human, UniProt P42127 23-132)
T1 construct: Coated at 2 ug/ml; also called ASIP protein
T1 sequence (looked up): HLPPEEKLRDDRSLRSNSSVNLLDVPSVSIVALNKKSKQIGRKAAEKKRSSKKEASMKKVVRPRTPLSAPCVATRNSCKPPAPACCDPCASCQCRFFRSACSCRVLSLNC
Test: ELISA: Protein M-HRP on coated human ASIP without antibody

B1: Protein M horseradish peroxidase (HRP) fusion protein (other)
chain: EQKLISEEDLAANQLTPTFYDNSCPNVSNIVRDTIVNELRSDPRIAASILRLHFHDCFVNGCDASILLDNTTSFRTEKDAFGNANSARGFPVIDRMKAAVESACPRTVSCADLLTIAAQQSVTLAGGPSWRVPLGRRDSLQAFLDLANANLPAPFFTLPQLKDSFRNVGLNRSSDLVALSGGHTFGKNQCRFIMDRLYNFSNTGLPDPTLNTTYLQTLRGLCPLNGNLSALVDFDLRTPTIFDNKYYVNLEEQKGLIQSDQELFSSPNATDTIPLVRSFANSTQTFFNAFVEAMDRMGNITPLTGTQGQIRLNCRVVNSNSGGGGSGGGGSGGGGSTNLVNQSGYALVASGRSGNLGFKLFSTQSPSAEVKLKSLSLNDGSYQSEIDLSGGANFREKFRNFANELSEAITNSPKGLDRPVPKTEISGLIKTGDNFITPSFKAGYYDHVASDGSLLSYYQSTEYFNNRVLMPILQTTNGTLMANNRGYDDVFRQVPSFSGWSNTKATTVSTSNNLTYDKWTYFAAKGSPLYDSYPNHFFEDVKTLAIDAKDISALKTTIDSEKPTYLIIRGLSGNGSQLNELQLPESVKKVSLYGDYTGVNVAKQIFANVVELEFYSTSKANSFGFNPLVLGSKTNVIYDLFASKPFTHIDLTQVTLQNSDNSAIDANKLKQAVGDIYNYRRFERQFQGYFAGGYIDKYLVKNVNTNKDSDDDLVYRSLKELNLHLEEAYREGDNTYYRVNENYYPGASIYENERASRDSEFQNEILKRAEQNGVTFDENIKRITASGKYSVQFQKLENDTDSSLERMTKAVEGLVTVIGEEKFETVDITGVSSDTNEVKSLAKELKTNALGVKLKL
notes: also called Protein M-HRP
- binding result: no binding
